Some targets named below: DLG1_2, Q12959; DLG4_2, P78352; FRMPD2_3, Q68DX3; Inadl_3, Q8NI35; Inadl_5, Q8NI35; LIMK2, P53671; PDLIM1, O00151; TJP1_3, Q07157.
Holding throughout (experiment): holdup assay
Holding throughout (parameters): key: below the threshold = too weak to quantify, mostly under pKd 3.1 to 4
Details in all cases: plain residues with an end cap or a label only (N-terminal biotin on a linker: ado-ado)

Another test concerns the target T1, APBA2_2, Q99767.
T1 sequence (Q99767 654-744, limits assumed, looked up): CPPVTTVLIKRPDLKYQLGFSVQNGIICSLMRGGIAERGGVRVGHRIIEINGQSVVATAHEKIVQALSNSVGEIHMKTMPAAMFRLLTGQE

Another test addresses T2, ARHGAP21, Q5T5U3.
T2 sequence (Q5T5U3 45-169, limits assumed, looked up): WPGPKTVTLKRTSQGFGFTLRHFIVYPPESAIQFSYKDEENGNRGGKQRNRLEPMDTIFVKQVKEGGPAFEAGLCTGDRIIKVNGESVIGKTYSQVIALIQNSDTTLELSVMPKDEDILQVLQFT

Another test has as its target T3, DLG3_2, Q92796.
T3 sequence (Q92796 221-321, limits assumed, looked up): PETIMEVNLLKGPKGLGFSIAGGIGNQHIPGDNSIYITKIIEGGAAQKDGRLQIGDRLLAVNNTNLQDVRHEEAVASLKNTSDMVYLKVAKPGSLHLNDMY

In a further test the target is T4, DVL3, Q92997.
T4 sequence (Q92997 244-331, limits assumed, looked up): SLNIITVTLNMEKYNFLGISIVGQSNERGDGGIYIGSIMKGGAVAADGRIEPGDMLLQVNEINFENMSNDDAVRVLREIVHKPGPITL

The target in another test is T5, HTRA4, P83105.
T5 sequence (P83105 378-476, limits assumed, looked up): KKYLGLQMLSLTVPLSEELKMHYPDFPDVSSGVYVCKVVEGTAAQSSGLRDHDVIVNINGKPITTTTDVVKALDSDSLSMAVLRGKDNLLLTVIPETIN

The target of another test is T6, LNX2_3, Q8N448.
T6 sequence (Q8N448 463-564, limits assumed, looked up): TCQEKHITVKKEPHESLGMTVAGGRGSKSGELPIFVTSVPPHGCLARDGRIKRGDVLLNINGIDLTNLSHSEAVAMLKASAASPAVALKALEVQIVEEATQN

Another test addresses T7, MPP6, Q9NZW5.
T7 sequence (Q9NZW5 125-219, limits assumed, looked up): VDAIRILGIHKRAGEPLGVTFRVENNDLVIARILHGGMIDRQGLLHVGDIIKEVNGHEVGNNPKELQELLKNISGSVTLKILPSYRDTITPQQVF

The next test concerns the target T8, NHERF3_1, Q5T2W1.
T8 sequence (Q5T2W1 4-100, limits assumed, looked up): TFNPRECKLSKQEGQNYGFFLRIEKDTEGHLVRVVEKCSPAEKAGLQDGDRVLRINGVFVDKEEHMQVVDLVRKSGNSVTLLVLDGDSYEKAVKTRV

The next test addresses T9, PDZD2_2, O15018.
T9 sequence (O15018 329-429, limits assumed, looked up): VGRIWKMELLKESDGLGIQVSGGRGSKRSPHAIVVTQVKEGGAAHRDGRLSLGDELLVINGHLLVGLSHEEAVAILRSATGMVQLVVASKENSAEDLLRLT

Another test has as its target T10, RADIL, Q96JH8.
T10 sequence (Q96JH8 971-1071, limits assumed, looked up): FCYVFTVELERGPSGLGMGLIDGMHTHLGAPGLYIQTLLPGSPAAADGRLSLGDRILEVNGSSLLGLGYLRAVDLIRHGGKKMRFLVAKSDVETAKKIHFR

In the next test the target is T11, RAPGEF6, Q8TEU7.
T11 sequence (Q8TEU7 525-625, limits assumed, looked up): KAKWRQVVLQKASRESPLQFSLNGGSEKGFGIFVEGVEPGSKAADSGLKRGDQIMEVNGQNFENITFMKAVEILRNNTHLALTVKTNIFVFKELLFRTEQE

Another test has as its target T12, SNTB1, Q13884.
T12 sequence (Q13884 107-205, limits assumed, looked up): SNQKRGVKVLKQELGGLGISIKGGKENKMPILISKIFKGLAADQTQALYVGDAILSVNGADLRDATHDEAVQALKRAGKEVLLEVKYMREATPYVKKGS

The target in the next test is T13, SNTG1, Q9NSN8.
T13 sequence (Q9NSN8 52-150, limits assumed, looked up): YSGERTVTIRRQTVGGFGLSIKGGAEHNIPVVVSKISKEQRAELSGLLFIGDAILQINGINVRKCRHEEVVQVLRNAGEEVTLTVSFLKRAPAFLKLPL

Another test deals with T14, TIAM2, Q8IVF5.
T14 sequence (Q8IVF5 885-986, limits assumed, looked up): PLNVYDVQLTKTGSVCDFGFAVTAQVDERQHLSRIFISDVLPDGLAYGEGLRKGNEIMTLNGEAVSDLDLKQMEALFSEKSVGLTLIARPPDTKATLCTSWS

By pKd is commonly meant −log10 of the Kd, conventionally taken in molar units.

Inadl_5, Q8NI35, sequence (Q8NI35 673-780): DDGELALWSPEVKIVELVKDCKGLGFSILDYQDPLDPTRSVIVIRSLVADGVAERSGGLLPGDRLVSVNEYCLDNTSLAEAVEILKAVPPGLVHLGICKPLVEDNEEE
TJP1_3, Q07157, sequence (Q07157 416-512): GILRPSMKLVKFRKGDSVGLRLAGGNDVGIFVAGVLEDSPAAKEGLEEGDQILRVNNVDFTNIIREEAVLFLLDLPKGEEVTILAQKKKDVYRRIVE
FRMPD2_3, Q68DX3, sequence (Q68DX3 1073-1166): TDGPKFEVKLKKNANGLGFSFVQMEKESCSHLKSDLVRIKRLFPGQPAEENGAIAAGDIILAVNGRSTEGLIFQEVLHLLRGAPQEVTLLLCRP
LIMK2, P53671, sequence (P53671 143-248): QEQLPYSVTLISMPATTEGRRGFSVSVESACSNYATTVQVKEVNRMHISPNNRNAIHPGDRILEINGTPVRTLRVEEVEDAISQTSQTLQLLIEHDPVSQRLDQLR
DLG1_2, Q12959, sequence (Q12959 314-412): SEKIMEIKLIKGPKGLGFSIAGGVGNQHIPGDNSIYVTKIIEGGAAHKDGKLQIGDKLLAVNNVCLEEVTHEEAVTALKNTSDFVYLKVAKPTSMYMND
PDLIM1, O00151, sequence (O00151 1-87): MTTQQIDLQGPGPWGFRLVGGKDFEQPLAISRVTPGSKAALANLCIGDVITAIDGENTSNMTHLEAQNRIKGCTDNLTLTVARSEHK
Inadl_3, Q8NI35, sequence (Q8NI35 359-469): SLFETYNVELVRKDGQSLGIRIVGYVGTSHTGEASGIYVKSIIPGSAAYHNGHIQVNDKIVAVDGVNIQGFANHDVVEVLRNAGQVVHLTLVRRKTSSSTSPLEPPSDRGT
DLG4_2, P78352, sequence (P78352 155-259): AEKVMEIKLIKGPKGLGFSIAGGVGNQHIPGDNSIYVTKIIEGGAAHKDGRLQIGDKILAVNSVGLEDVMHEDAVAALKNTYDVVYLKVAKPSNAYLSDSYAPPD

Regarding FHSIKQSTAV [CRHR1, P34998], the pKd result with APBA2_2, Q99767 was “below the threshold”; with ARHGAP21, Q5T5U3, “below the threshold”; with DLG1_2, Q12959, 4.98; with DLG3_2, Q92796, 4.61; with DLG4_2, P78352, 4.93; with DVL3, Q92997 it was “below the threshold”. Further, the pKd entry in the test with FRMPD2_3, Q68DX3 is “below the threshold”; with HTRA4, P83105, “below the threshold”; in the test with Inadl_3, Q8NI35 it was “below the threshold”; with Inadl_5, Q8NI35, “below the threshold”; with LIMK2, P53671, “below the threshold”; with LNX2_3, Q8N448 it was “below the threshold”. Also, the negative logarithm of the Kd (pKd) in the test with MPP6, Q9NZW5 was 3.7; with NHERF3_1, Q5T2W1, 5.52; with PDLIM1, O00151, “below the threshold”; with PDZD2_2, O15018 it was 4.48; in the test with RADIL, Q96JH8, “below the threshold”; with RAPGEF6, Q8TEU7, “below the threshold”. Further, the pKd with SNTB1, Q13884 was 3.75; in the test with SNTG1, Q9NSN8, 3.64; with TIAM2, Q8IVF5, “below the threshold”; with TJP1_3, Q07157 it was “below the threshold”.
Consider ATKDKKITTV [EXOC4, Q96A65], for which the pKd entry with APBA2_2, Q99767 is “below the threshold”; with ARHGAP21, Q5T5U3, 4.09; with DLG1_2, Q12959, 5.91; with DLG3_2, Q92796 it was 5.28; with DLG4_2, P78352, 5.85; with DVL3, Q92997, “below the threshold”. In addition, the pKd entry was “below the threshold” with FRMPD2_3, Q68DX3; 3.49 with HTRA4, P83105; “below the threshold” with Inadl_3, Q8NI35; “below the threshold” with Inadl_5, Q8NI35; “below the threshold” with LIMK2, P53671; 3.48 with LNX2_3, Q8N448. Besides, the negative logarithm of the Kd (pKd) entry in the test with MPP6, Q9NZW5 is “below the threshold”; with NHERF3_1, Q5T2W1, “below the threshold”; with PDLIM1, O00151, 3.49; with PDZD2_2, O15018 it was 3.88; in the test with RADIL, Q96JH8, 4.14; with RAPGEF6, Q8TEU7, “below the threshold”. In addition, the pKd with SNTB1, Q13884 was 4.34; with SNTG1, Q9NSN8, 3.72; in the test with TIAM2, Q8IVF5, “below the threshold”; in the test with TJP1_3, Q07157, “below the threshold”.

The values above are taken from paper PMC9482650, “Quantitative fragmentomics allow affinity mapping of interactomes” (Nature Communications, 2022).
